Source: paper PMC7991746
pKd: −log10 of the molar value.

How the values were obtained:
[1] = target: dual-specificity phosphatase 3 (DUSP3), wild type (UniProt P51452); test: SPR; Biacore T100; DUSP3-WT or DUSP3-C124S immobilised on CM5 sensorchip (200 RU); analytes 12.5 to 1,000 nM; 25°C; HBS-EP buffer; association 120 s, dissociation 300 s, 10 μl/min
[2] = target: DUSP3-C124S mutant (phosphatase dead) (UniProt P51452); test: SPR; Biacore T100; DUSP3-WT or DUSP3-C124S immobilised on CM5 sensorchip (200 RU); protein analytes 12.5-1,000 nM; kinetic assays at 25°C, HBS-EP buffer, 10 μl/min, 120 s association, 300 s dissociation; three independent experiments
[3] = target: DUSP3-WT (dual-specificity phosphatase 3) (UniProt P51452); test: as above
Chain of DUSP3-WT (dual-specificity phosphatase 3) (P51452 whole entry): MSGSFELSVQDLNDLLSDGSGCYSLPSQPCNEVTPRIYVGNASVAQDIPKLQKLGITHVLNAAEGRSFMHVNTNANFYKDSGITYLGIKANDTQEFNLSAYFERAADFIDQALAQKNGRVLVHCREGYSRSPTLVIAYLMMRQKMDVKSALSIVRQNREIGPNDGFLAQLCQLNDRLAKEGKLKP

Chain of dual-specificity phosphatase 3 (DUSP3), wild type (P51452 whole entry): as above
Chain of DUSP3-C124S mutant (phosphatase dead) (P51452 whole entry C124S): as the sequence (P51452 whole entry) above, with C124S counted along it

Substance	fold higher affinity than ERK1 [1] [fold]	fold higher affinity than NPM 9-122 [1] [fold]	pKd [2]	pKd [3]
nucleophosmin (NPM) full length (natural protein)	10	17		
NPM full length (nucleophosmin) (natural protein)			7.94	7.76
truncated N-terminal of NPM 9-122 (domain or fragment)			6.41	6.53
